# Where a chain is given by its changes, count along the chain named.
# T1: recombinant human TREM2 protein (amino acids 19 to 174) (human, UniProt Q9NZC2 19-174)
# T1 chain: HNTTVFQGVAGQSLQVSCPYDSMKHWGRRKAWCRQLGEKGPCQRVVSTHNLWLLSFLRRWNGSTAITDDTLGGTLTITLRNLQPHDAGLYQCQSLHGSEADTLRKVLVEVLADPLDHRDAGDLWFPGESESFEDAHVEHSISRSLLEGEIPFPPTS
# T2: recombinant human TREM2 protein (amino acids 19 to 174) (human, UniProt Q9NZC2 19-174)
# T2 construct: range 19-174
# T2 sequence (looked up): T1 chain
# B1: Fc fusion antibody of single-domain antibody 2B5 (Fc fusion)
# chain: ESGGGLVQPGGSLRLSCAASGFAFSNYVMHWYRQAPEKERELVALIGSQGGAYTNYAGSVKGRFTISRDNTKNMVYLQMNNLKPEDTAVYYCNVVYNGRPNWGQGTQVTVSS
# notes: also called VHH-hFc; not shown: human IgG1 (vector RJK-V4-hFC1) or IgG4 (vector RJK-V4-3) hinge, CH2, CH3 with 6xHis tag; which of the two is told only
# B2: Fc fusion antibody of single-domain antibody 1H1 (Fc fusion)
# chain: ESGGGLVQPGGSLRLSCAASGRTFSSYVMGWFRQAPGKEREFVAAISWSGGITYYGDSVKGRFTISRDNAKNTVFLQMNSLKPEDTAVYYCASGSGSYYRGWEYDYWGQGTQVTVSS
# notes: as for B1
# B3: Fc fusion antibody of single-domain antibody 12G10 (Fc fusion)
# chain: B1 chain with L45I, G58A, T71A, N97I
# notes: as for B1
# B4: Fc fusion antibody of single-domain antibody 11D3 (Fc fusion)
# chain: ESGGGLVQAGESLRLSCAASGRTFTDYAMGWFRQAPGKEREFVAGVSWSGSSTDYADSVKGRFTISTDNAKNTVYLQMTSLKPEDTAVYICGVKYFGHSRGGYDYWGQGTQVTVSS
# notes: as for B1
# B5: 11H2-hFC4 (Fc fusion antibody of single-domain antibody 11H2) (Fc fusion)
# chain (part 1 of 2): ESGGGLVQPGGSLRLSCAASGLTFSEYYMSWVRQVPGKARELVAGITRGGNTYYADSVKGRFTISRDNAKNTVYLQMNNLKPEDTTVYYCNARRATTYYWGQGTQVTVSS
# B6: 12G12W-hFC1 (Fc fusion antibody of single-domain antibody 12G12W) (Fc fusion)
# chain (part 1 of 2): B4 chain with D26N
# B7: Fc fusion antibody of single-domain antibody 10F10 (Fc fusion)
# chain: B1 chain with S25G, L45I, A52T, G58D, T71A, N97I
# notes: as for B1
# B8: Fc fusion antibody of single-domain antibody 10B3 (Fc fusion)
# chain: B4 chain with D26N, M78I, T79N, S80N
# notes: as for B1
# B9: Fc fusion antibody of single-domain antibody 10E12 (Fc fusion)
# chain: B5 chain (part 1 of 2) with L22F, E26G
# notes: as for B1
# B10: single-domain antibody 12G10 (VHH)
# VHH: B1 chain with L45I, G58A, T71A, N97I
# notes: Crude extract from E. coli (pMECS vector), detected through an HA tag
# B11: single-domain antibody 10F10 (VHH)
# VHH: B1 chain with S25G, L45I, A52T, G58D, T71A, N97I
# notes: as for B10
# B12: single-domain antibody 2B5 (VHH)
# VHH: B1 chain
# notes: as for B10
# B13: single-domain antibody 12G12W (VHH)
# VHH: B4 chain with D26N
# notes: as for B10
# B14: single-domain antibody 10B3 (VHH)
# VHH: B4 chain with D26N, M78I, T79N, S80N
# notes: as for B10
# B15: single-domain antibody 11D3 (VHH)
# VHH: B4 chain
# notes: as for B10
# B16: single-domain antibody 1H1 (VHH)
# VHH: B2 chain
# notes: as for B10
# B17: single-domain antibody 10E12 (VHH)
# VHH: B5 chain (part 1 of 2) with L22F, E26G
# notes: as for B10
# B18: single-domain antibody 11H2 (VHH)
# VHH: B5 chain (part 1 of 2)
# notes: as for B10
# Target: T1, recombinant human TREM2 protein (amino …)
# Assay: ELISA
row,EC50 [nM],Binder
1,0.201,B1
2,0.38,B2

# Target: T1, recombinant human TREM2 protein (amino …)
# Assay: ELISA
# Remark: another data set of the same source
row,EC50 [nM],Binder
1,0.3,B3
2,0.337,B4
3,0.33,B5

# Target: T1, recombinant human TREM2 protein (amino …)
# Assay: ELISA
# Remark: another data set of the same source
row,EC50 [nM],Binder
1,0.254,B6

# Target: T1, recombinant human TREM2 protein (amino …)
# Assay: ELISA
# Remark: another data set of the same source
row,EC50 [nM],Binder
1,0.265,B7
2,0.242,B8
3,0.293,B9

# Target: T2, recombinant human TREM2 protein (amino …)
# Assay: ELISA, VHH-hFc titrated on coated TREM2 (1 ug/mL), HRP-goat anti-hIgG
row,binding result,Binder
1,binds,B3
2,binds,B1
3,binds,B7
4,binds,B4
5,binds,B8
6,binds,B2
7,binds,B9

# Target: T2, recombinant human TREM2 protein (amino …)
# Assay: ELISA, crude VHH extract on coated TREM2, anti-HA-HRP; positive if OD450 more than five times the control
# Method: Crude antibodies were obtained by osmotic bursting. The TREM2 recombinant proteins were diluted in 100 mM NaHCO₃ of pH 8.3, respectively. An ELISA plate was then coated with 100 μg of the proteins and left at 4° C. overnight. 100 μL of the obtained crude antibody extract was transferred to the ELISA plate into which the antigen was added. The plate was incubated at room temperature for 1 h. The unbound antibody was washed away with phosphate buffered saline with Tween (PBST), and 100 μL of Mouse Anti-HA tag Antibody (HRP) (mouse anti-HA horseradish peroxidase-labeled antibody, Thermo Fisher) at 1:2000 dilution was added and incubated at room temperature for 1 h. The unbound antibody was washed away with PBST, and a horseradish peroxidase color development solution was added. After react at 37° C. for 15 min, a stopping solution was added. The absorbance value was read at the wavelength of 450 nm on a microplate reader.
# When an optical density (OD) value of a sample well is more than five times greater than that of the control well, the sample well is identified as a positive clone well. The bacteria in the positive clone well were transferred to an LB medium containing 100 μg/mL ampicillin under shaking for plasmid extraction and sequencing.
row,binding result,Binder
1,binds,B10
2,binds,B11
3,binds,B12
4,binds,B13
5,binds,B14
6,binds,B15
7,binds,B16
8,binds,B17
9,binds,B18

# From patent US20250320293A1 (REGENECORE BIOTECH, published 2025)
